Test results as given in US20080027001A1 (published 2008).
Bridges are numbered along the chain shown (N, C = ends).

Experiments:
[1] = biological target: Recombinant MAG-Fc chimera (R&D Systems); test: cell-based or functional assay
[2] = biological target: T1, mutant NgR1 EM11 (R279A) (human, UniProt Q9BZR6 27-447); test: Nogo-66-AP (10 µg/ml) on transfected COS-7 cells, AP luminescence
T1 construct: whole, on cells
T1 sequence (looked up): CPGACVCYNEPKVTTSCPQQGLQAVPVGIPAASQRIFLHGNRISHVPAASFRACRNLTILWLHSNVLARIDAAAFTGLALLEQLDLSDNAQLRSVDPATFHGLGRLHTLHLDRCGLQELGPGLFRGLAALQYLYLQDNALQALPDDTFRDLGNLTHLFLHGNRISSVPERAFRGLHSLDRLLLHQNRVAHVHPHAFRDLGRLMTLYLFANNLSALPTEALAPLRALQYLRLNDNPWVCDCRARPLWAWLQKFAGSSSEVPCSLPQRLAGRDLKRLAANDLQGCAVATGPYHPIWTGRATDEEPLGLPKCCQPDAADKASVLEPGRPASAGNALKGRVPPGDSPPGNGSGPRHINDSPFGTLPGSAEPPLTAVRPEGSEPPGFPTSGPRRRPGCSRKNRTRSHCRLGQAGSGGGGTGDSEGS
Protocol: (§1) The remaining cells were separately plated and assayed for surface expression of the NgR1 proteins by immunocytochemistry (Example 1.9) and for total NgR1 protein levels by Western blot analysis (Example 1.8). […] The next day, wells were rinsed once with HBAH (Hank's Balanced Salt Solution (HBSS) containing bovine serum albumin (0.5 mg/ml), NaN₃ (0.1%), and 20 mM HEPES pH 7.0) at room temperature followed by incubation with 100 μl of AP fusion protein (MAG-AP or Nogo-66-AP) diluted to a final concentration of 10 μg/ml in HBAH for 90 minutes. Wells were then washed six times with gentle shaking in HBAH at room temperature, five minutes each wash. Cells were then fixed with acetone-formaldehyde (60%-3%, in 20 mM HEPES, pH 7.0) for 15 seconds at room temperature, then washed three times for five minutes each with HBSS. Binding of AP-tagged ligands was measured using the Great EscAPe SEAP Kit (BD Biosciences) following the manufacturer's recommended protocol. Briefly, after aspirating HBSS, 60 μl of dilution buffer was added to each well, the plates were sealed, and then incubated at 65° C. for 90 min. Plates were cooled on ice and then 60 μl of assay buffer was added per well and incubated at room temperature for five minutes. Sixty microliters of diluted CSPD® substrate (Applied Biosystems, Foster City, Calif.) was then added per well, incubated for 10 minutes at room temperature, and then read on an LMAXII luminometer (Molecular Devices). Absolute binding numbers were corrected by subtracting average binding values obtained from mock-transfected controls. Binding was further corrected for sample-to-sample variations in transfection efficiency by normalizing to beta-galactosidase activity. Beta-galactosidase activity was measured using the luminescent beta-gal detection kit II (BD Biosciences) following the manufacturer's recommended protocol. Three independent binding experiments were conducted with six to eleven replicates per experiment. Background-subtracted, beta-galactosidase-corrected binding values were expressed relative to the wild type receptor.

[3] = biological target: T2, mutant NgR1 EM8 (K277A, R279A) (human, UniProt Q9BZR6 27-447); test: as above
T2 construct: whole, on cells
T2 sequence (looked up): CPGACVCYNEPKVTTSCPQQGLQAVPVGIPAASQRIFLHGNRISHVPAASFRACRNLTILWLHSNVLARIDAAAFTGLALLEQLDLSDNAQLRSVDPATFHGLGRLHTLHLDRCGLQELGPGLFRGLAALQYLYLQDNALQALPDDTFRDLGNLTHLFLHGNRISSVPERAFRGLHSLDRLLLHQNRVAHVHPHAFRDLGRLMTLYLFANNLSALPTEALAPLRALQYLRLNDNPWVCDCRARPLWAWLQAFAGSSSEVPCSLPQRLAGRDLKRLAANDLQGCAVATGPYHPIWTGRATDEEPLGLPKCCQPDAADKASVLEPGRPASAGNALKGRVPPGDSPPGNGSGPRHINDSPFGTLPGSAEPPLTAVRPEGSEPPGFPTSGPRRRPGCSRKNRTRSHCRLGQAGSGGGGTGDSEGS
Protocol: as §1

[4] = biological target: T3, mutant NgR1 EM7 (K277D/R279D) (human, UniProt Q9BZR6 27-447); test: as above
T3 construct: whole, on cells
T3 sequence (looked up): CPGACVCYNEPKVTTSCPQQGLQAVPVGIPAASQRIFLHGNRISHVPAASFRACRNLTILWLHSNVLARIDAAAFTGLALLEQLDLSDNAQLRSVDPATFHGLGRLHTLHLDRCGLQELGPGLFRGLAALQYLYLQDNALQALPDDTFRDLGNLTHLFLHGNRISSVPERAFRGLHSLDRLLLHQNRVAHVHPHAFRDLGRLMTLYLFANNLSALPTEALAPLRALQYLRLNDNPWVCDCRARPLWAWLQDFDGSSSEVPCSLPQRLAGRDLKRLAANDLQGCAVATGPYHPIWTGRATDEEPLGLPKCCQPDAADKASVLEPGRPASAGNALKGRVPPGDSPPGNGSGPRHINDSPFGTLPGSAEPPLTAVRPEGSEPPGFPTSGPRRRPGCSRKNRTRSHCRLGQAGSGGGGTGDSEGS
Protocol: as §1

[5] = biological target: T4, mutant NgR1 EM10 (K277A) (human, UniProt Q9BZR6 27-447); test: as above
T4 construct: whole, on cells
T4 sequence (looked up): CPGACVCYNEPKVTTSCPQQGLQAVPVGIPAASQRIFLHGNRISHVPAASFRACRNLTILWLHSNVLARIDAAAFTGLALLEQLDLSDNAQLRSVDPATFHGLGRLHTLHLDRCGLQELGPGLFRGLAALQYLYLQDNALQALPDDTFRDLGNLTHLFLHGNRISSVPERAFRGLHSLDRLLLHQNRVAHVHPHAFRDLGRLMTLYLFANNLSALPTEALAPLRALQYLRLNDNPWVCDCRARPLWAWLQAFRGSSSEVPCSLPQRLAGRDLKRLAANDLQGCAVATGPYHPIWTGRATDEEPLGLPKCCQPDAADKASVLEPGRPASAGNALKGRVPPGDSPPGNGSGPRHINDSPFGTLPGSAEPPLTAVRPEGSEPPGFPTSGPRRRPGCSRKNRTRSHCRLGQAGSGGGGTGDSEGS
Protocol: as §1

[6] = biological target: T1, mutant NgR1 EM11 (R279A); test: MAG-AP (10 µg/ml) on transfected COS-7 cells, AP luminescence, corrected for background and transfection efficiency
Protocol: as §1

[7] = biological target: T2, mutant NgR1 EM8 (K277A, R279A); test: as above
Protocol: as §1

[8] = biological target: T3, mutant NgR1 EM7 (K277D/R279D); test: as above
Protocol: as §1

## Ac-CQKARGC-NH2 (disulfide 1-7 (inferred)) [NRL2bA2 (N-Ac-CQKARGC-NH2)]
[1]
  neurite outgrowth, MAG-Fc at 20 µg/ml: reduction of peptide efficacy against NRL2b: ~2 fold

B1: Nogo-66-AP(C47V) (ligand)
chain: IIPVEEENPDFWNREAAEALGAAKKLQPAQTAAKNLIIFLGDGMGVSTVTAARILKGQKKDKLGPEIPLAMDRFPYVALSKTYNVDKHVPDSGATATAYLCGVKGNFQTIGLSAAARFNQCNTTRGNEVISVMNRAKKAGKSVGVVTTTRVQHASPAGTYAHTVNRNWYSDADVPASARQEGCQDIATQLISNMDIDVILGGGRKYMFRMGTPDPEYPDDYSQGGTRLDGKNLVQEWLAKRQGARYVWNRTELMQASLDPSVTHLMGLFEPGDMKYEIHRDSTLDPSLMEMTEAALRLLSRNPRGFFLFVEGGRIDHGHHESRAYRALTETIMFDDAIERAGQLTSEEDTLSLVTADHSHVFSFGGYPLRGSSIFGLAPGKARDRKAYTVLLYGNGPGYVLKDGARPDVTESESGSPEYRQQSAVPLDEETHAGEDVAVFARGPQAHLVHGVQEQTFIAHVMAFAACLEPYTACDLAPPAGTTDAAHPGRIYKGVIQAIQKSDEGHPFRAYLESEVAISEELVQKYSNSALGHVNVTIKELRRLFLVDDLVDSLKHHHHHH
notes: Any secretion signal in front of AP is not described; also called alkaline phosphatase-labeled Nogo-66
[2]
  binding result: binds
[3]
  binding result: binds
[4]
  binding result: binds
[5]
  binding result: binds

B2: MAG-AP (N-terminal human myelin associated glycoprotein amino acids 1-516, C-terminal alkaline phosphatase domain amino acids 23-511, six C-terminal histidine … (ligand)
chain: GHWGAWMPSSISAFEGTCVSIPCRFDFPDELRPAVVHGVWYFNSPYPKNYPPVVFKSRTQVVHESFQGRSRLLGDLGLRNCTLLLSNVSPELGGKYYFRGDLGGYNQYTFSEHSVLDIVNTPNIVVPPEVVAGTEVEVSCMVPDNCPELRPELSWLGHEGLGEPAVLGRLREDEGTWVQVSLLHFVPTREANGHRLGCQASFPNTTLQFEGYASMDVKYPPVIVEMNSSVEAIEGSHVSLLCGADSNPPPLLTWMRDGTVLREAVAESLLLELEEVTPAEDGVYACLAENAYGQDNRTVGLSVMYAPWKPTVNGTMVAVEGETVSILCSTQSNPDPILTIFKEKQILSTVIYESELQLELPAVSPEDDGEYWCVAENQYGQRATAFNLSVEFAPVLLLESHCAAARDTVQCLCVVKSNPEPSVAFELPSRNVTVNESEREFVYSERSGLVLTSILTLRGQAQAPPRVICTARNLYGAKSLELPFQGAHRLMWAKIGPIIPVEEENPDFWNREAAEALGAAKKLQPAQTAAKNLIIFLGDGMGVSTVTAARILKGQKKDKLGPEIPLAMDRFPYVALSKTYNVDKHVPDSGATATAYLCGVKGNFQTIGLSAAARFNQCNTTRGNEVISVMNRAKKAGKSVGVVTTTRVQHASPAGTYAHTVNRNWYSDADVPASARQEGCQDIATQLISNMDIDVILGGGRKYMFRMGTPDPEYPDDYSQGGTRLDGKNLVQEWLAKRQGARYVWNRTELMQASLDPSVTHLMGLFEPGDMKYEIHRDSTLDPSLMEMTEAALRLLSRNPRGFFLFVEGGRIDHGHHESRAYRALTETIMFDDAIERAGQLTSEEDTLSLVTADHSHVFSFGGYPLRGSSIFGLAPGKARDRKAYTVLLYGNGPGYVLKDGARPDVTESESGSPEYRQQSAVPLDEETHAGEDVAVFARGPQAHLVHGVQEQTFIAHVMAFAACLEPYTACDLAPPAGTTDAAHPGHHHHHH
notes: range 1-516;range 23-511; also called alkaline phosphatase-labeled MAG; MAG-AP fusion protein
[6]
  percent reduction in binding relative to wild type NgR1: 36%
[7]
  percent reduction in binding relative to wild type NgR1: 58%
[8]
  percent reduction in binding relative to wild type NgR1: 57%
